# Experimental data: PMC12355471, “Clear Native Gel Electrophoresis for the Purification of Fluorescently Labeled Membrane Proteins in Native Nanodiscs” (Analytical Chemistry, 2025)
# Like-named read-outs stand apart in the source and are kept apart here.
# B1: glycerol uptake facilitator protein (GlpF) (natural protein, UniProt P0AER0 1-281, looked up)
# chain: MSQTSTLKGQCIAEFLGTGLLIFFGVGCVAALKVAGASFGQWEISVIWGLGVAMAIYLTAGVSGAHLNPAVTIALWLFACFDKRKVIPFIVSQVAGAFCAAALVYGLYYNLFFDFEQTHHIVRGSVESVDLAGTFSTYPNPHINFVQAFAVEMVITAILMGLILALTDDGNGVPRGPLAPLLIGLLIAVIGASMGPLTGFAMNPARDFGPKVFAWLAGWGNVAFTGGRDIPYFLVPLFGPIVGAIVGAFAYRKLIGRHLPCDICVVEEKETTTPSEQKASL
# modifications: Alexa Fluor 647 maleimide on cysteine (six cysteine positions, not all can be labeled)
# notes: glycerol uptake facilitator protein GlpF, a bacterial aquaporin; Studied inside Glyco-DIBMA native nanodiscs; A monomeric fraction was also found; also called bacterial aquaporin; aqua(glycero)porin GlpF
# B2: urea channel HpUreI L134C (natural protein)
# chain: MLGLVLLYVGIVLISNGICGLTKVDPKSTAVMNFFVGGLSIICNIVVITYSALHPTAPVEGAEDIAQVSHHLTSFYGPATGLLFGFTYLYAAINHTFGLDWRPYSWYSLFVAINTIPAAILSHYSDMLDDHKVCGITEGDWWAIIWLAWGVLWLTAFIENILKIPLGKFTPWLAIIEGILTAWIPAWLLFIQHWV
# modifications: Alexa Fluor 647 maleimide on the cysteine of L134C
# notes: urea channel UreI (HpUreI); Studied inside Glyco-DIBMA native nanodiscs; also called bacterial hexameric urea channel
# What was measured:
# [1] = molecular target: voltage-gated potassium ion channel KvAP (Aeropyrum pernix) (UniProt Q9YDF8); test: native gel or EMSA; detergent-free clear native PAGE (CNE) of Glyco-DIBMA nanodiscs, 4 °C, fluorescence imaging
# [2] = molecular target: voltage-gated potassium ion channel KvAP (Aeropyrum pernix) (UniProt Q9YDF8); test: SEC; Glyco-DIBMA native nanodiscs with labelled protein after Ni2+ affinity chromatography; absorbance at 280, 650 and 665 nm; oligomer peak at 10-11 mL
# [3] = molecular target: voltage-gated potassium ion channel KvAP (Aeropyrum pernix) (UniProt Q9YDF8); test: native gel or EMSA; high-resolution clear native PAGE (hrCNE) with 0.01% DDM and 0.05% sodium deoxycholate, Glyco-DIBMA nanodiscs, 4 °C, fluorescence imaging
# [4] = molecular target: voltage-gated potassium ion channel KvAP (Aeropyrum pernix) (UniProt Q9YDF8); test: fluorescence correlation spectroscopy (molecular brightness per nanodisc); Alexa Fluor 647-labelled protein in Glyco-DIBMA native nanodiscs; oligomer fraction after SEC and bands resolubilised from native gels; brightness compared with the free dye (ruler, 7.5 kHz); nM concentrations; standard buffer 150 mM NaCl or KCl, 50 mM Tris-HCl, pH 8
# [5] = molecular target: voltage-gated potassium ion channel KvAP (Aeropyrum pernix) (UniProt Q9YDF8); test: as above; remark: listed apart in the source
# [6] = molecular target: voltage-gated sodium ion channel NavMs; test: SEC; Glyco-DIBMA native nanodiscs with labelled protein after Ni2+ affinity chromatography; absorbance at 280, 650 and 665 nm; oligomer peak at 10-11 mL
# [7] = molecular target: voltage-gated sodium ion channel NavMs; test: native gel or EMSA; high-resolution clear native PAGE (hrCNE) with 0.01% DDM and 0.05% sodium deoxycholate, Glyco-DIBMA nanodiscs, 4 °C, fluorescence imaging
# [8] = molecular target: voltage-gated sodium ion channel NavMs; test: fluorescence correlation spectroscopy (molecular brightness per nanodisc); Alexa Fluor 647-labelled protein in Glyco-DIBMA native nanodiscs; oligomer fraction after SEC and bands resolubilised from native gels; brightness compared with the free dye (ruler, 7.5 kHz); nM concentrations; standard buffer 150 mM NaCl or KCl, 50 mM Tris-HCl, pH 8
# [9] = molecular target: the molecule itself; test: SEC; Glyco-DIBMA native nanodiscs with labelled protein after Ni2+ affinity chromatography; absorbance at 280, 650 and 665 nm; oligomer peak at 10-11 mL
# [10] = molecular target: the molecule itself; test: fluorescence correlation spectroscopy (molecular brightness per nanodisc); Alexa Fluor 647-labelled protein in Glyco-DIBMA native nanodiscs; oligomer fraction after SEC and bands resolubilised from native gels; brightness compared with the free dye (ruler, 7.5 kHz); nM concentrations; standard buffer 150 mM NaCl or KCl, 50 mM Tris-HCl, pH 8
molecule,measurement,setting,value
voltage-gated potassium ion channel KvAP (from UniProt Q9YDF8 1-295) (natural protein),stoichiometry N,[1],4
same,stoichiometry N,[2],4
same,stoichiometry N,[3],4
same,ratio of molecular brightness to the free dye (taken as the oligomeric state),[4],5.5 fold
same,ratio of molecular brightness to the free dye (taken as the oligomeric state),[5],4 fold
voltage-gated sodium ion channel NavMs (natural protein),stoichiometry N,[6],4
same,stoichiometry N,[7],4
same,ratio of molecular brightness to the free dye (taken as the oligomeric state),[8],3 fold
B1,stoichiometry N,[9],4
B2,stoichiometry N,[9],6
same,ratio of molecular brightness to the free dye (taken as the oligomeric state),[10],6 fold
